From article PMC5510004, “Recruitment and positioning determine the specific role of the XPF‐ERCC1 endonuclease in interstrand crosslink repair”

Tests used:
[1] = target: T1, XPF C225R;ERCC1 wild type (hsERCC1) (Xenopus laevis;Homo sapiens?, UniProt A0A8J0PXV9;P07992 1-897;1-297, C225R|); experiment: fluorescence anisotropy; 2 mM Ca2+; comparable to wild type; 25 mM Hepes pH 8.0, 15% glycerol, 0.1 mg/ml BSA, 2 mM CaCl2, 10 nM DNA, 1 h at room temperature; details: protein: recombinant;recombinant; tags: FLAG;His; copies: 1;1; label: 5'-FAM on F1; three strands 1:1:1
T1 sequence 1: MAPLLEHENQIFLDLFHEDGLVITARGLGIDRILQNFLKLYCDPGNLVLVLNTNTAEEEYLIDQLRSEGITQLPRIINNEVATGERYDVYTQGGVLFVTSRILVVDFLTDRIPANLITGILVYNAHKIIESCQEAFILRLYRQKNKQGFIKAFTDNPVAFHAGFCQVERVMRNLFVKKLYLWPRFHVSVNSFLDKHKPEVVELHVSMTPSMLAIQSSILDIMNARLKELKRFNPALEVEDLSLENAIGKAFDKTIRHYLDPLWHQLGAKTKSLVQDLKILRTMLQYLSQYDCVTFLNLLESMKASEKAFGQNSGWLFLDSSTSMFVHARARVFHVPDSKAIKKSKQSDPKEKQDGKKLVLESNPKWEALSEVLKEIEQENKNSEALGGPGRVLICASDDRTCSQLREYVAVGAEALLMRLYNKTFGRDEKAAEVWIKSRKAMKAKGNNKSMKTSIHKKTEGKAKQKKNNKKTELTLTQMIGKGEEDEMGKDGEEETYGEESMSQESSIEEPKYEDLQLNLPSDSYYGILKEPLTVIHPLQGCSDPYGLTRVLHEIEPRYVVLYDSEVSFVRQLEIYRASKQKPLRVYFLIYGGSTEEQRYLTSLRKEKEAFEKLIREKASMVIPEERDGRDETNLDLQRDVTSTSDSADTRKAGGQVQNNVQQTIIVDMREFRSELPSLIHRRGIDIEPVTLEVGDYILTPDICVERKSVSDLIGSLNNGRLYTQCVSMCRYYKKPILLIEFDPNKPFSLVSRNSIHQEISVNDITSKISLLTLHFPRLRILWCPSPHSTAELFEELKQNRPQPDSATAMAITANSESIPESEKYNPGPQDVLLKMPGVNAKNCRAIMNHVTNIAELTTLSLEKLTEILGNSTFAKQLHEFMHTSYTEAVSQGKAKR
T1 sequence 2: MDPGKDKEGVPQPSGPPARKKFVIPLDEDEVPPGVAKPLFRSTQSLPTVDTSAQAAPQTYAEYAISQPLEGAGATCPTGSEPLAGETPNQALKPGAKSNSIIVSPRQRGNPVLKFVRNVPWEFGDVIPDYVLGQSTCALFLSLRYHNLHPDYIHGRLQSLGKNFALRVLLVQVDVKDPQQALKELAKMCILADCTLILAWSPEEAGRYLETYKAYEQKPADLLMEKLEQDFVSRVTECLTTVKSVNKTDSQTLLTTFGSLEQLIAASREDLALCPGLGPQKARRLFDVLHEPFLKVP

[2] = target: T2, XPF wild type (xlXPF);ERCC1 wild type (hsERCC1) (Xenopus laevis;Homo sapiens?, UniProt A0A8J0PXV9;P07992 1-897;1-297, |); experiment: fluorescence anisotropy; 2 mM Ca2+; 25 mM Hepes pH 8.0, 15% glycerol, 0.1 mg/ml BSA, 2 mM CaCl2, 10 nM DNA, 1 h at room temperature; details: protein: recombinant;recombinant; tags: FLAG;His; copies: 1;1; label: 5'-FAM on F1; three strands 1:1:1
T2 sequence 1: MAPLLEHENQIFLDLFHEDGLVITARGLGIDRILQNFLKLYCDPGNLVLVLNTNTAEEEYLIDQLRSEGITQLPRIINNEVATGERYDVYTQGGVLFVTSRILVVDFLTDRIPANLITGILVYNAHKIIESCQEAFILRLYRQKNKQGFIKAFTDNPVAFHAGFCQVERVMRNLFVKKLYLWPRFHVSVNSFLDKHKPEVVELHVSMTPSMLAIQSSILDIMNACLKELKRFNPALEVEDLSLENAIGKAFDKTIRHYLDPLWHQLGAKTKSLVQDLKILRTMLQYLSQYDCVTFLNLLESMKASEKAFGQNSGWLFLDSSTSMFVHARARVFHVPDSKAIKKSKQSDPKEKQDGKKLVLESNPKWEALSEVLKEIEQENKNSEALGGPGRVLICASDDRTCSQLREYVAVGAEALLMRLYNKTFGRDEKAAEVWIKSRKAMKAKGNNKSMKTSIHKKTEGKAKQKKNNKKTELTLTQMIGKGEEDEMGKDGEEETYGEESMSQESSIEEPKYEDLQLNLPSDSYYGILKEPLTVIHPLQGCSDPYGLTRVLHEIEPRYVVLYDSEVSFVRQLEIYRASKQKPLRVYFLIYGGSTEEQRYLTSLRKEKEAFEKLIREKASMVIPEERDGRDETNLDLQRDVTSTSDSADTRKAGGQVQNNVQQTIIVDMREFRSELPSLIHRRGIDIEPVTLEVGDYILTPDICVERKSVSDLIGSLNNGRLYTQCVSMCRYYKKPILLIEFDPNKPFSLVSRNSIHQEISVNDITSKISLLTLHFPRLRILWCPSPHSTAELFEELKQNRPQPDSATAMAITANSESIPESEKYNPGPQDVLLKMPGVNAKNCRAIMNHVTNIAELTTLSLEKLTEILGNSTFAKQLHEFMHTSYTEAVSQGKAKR
T2 sequence 2: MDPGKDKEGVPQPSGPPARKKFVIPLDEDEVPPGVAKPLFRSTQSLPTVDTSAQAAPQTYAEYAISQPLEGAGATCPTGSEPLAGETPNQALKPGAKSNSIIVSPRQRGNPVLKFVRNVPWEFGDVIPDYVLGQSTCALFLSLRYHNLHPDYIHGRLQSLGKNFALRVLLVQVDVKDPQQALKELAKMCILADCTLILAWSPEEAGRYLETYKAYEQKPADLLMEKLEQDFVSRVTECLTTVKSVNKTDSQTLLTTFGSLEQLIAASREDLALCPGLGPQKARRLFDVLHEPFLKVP

B1: 3' flap DNA substrate (F1+F2+F3) (dsDNA)
DNA 1: CGCGATGCGGATCCAA
DNA 2: CCTAGACTTAAGAGGCCAGACTTGGATCCGCATCGC
DNA 3: GGCCTCTTAAGTCTAGG
binding result [1]: binds
binding result [2]: binds
